Reference: PMC10269695, “HtpG Is a Metal-Dependent Chaperone Which Assists the DnaK/DnaJ/GrpE Chaperone System of Mycobacterium tuberculosis via Direct Association with DnaJ2” (Microbiology Spectrum, 2023)

Molecular target: T1, M. tuberculosis HtpG (high-temperature protein G) (M. tuberculosis H37Rv, UniProt P9WMJ7 1-647)
T1 construct: also called mHtpG; Rv2299c; not shown: GST, N-terminal, cleaved
T1 sequence: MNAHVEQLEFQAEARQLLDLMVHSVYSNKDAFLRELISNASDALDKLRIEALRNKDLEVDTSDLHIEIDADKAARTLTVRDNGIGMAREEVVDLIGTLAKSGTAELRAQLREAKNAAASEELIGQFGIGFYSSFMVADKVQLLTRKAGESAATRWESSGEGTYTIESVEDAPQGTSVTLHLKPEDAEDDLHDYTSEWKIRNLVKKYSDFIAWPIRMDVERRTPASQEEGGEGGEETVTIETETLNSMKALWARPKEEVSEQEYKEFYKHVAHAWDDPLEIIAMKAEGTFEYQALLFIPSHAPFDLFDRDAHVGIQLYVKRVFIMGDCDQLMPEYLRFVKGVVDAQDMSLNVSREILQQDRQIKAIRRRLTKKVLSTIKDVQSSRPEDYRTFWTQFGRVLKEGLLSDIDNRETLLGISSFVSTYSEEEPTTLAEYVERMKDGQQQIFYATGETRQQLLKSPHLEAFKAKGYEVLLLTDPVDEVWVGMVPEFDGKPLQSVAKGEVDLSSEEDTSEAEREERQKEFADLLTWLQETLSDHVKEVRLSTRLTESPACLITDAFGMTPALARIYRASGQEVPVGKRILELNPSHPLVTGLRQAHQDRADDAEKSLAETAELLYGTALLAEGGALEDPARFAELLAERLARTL
Experiment: BLI
Details: both partners purified

B1: M. tuberculosis DnaJ2 (natural protein)
chain: MARDYYGLLGVSKNASDADIKRAYRKLARELHPDVNPDEAAQAKFKEISVAYEVLSDPDKRRIVDLGGDPLESAAAGGNGFGGFGGLGDVFEAFFGGGFGGGAASRGPIGRVRPGSDSLLRMRLDLEECATGVTKQVTVDTAVLCDRCQGKGTNGDSVPIPCDTCGGRGEVQTVQRSLLGQMLTSRPCPTCRGVGVVIPDPCQQCMGDGRIRARREISVKIPAGVGDGMRVRLAAQGEVGPGGGPAGDLYVEVHEQAHDVFVREGDHLHCTVSVPMVDAALGVTVTVDAILDGLSEITIPPGTQPGSVITLRGRGMPHLRSNTRGDLHVHVEVVVPTRLDHQDIELLRELKGRRDREVAEVRSTHAAAGGLFSRLRETFTGR
notes: also called Rv2373c; not shown: GST, N-terminal, cleaved
**Q.** B1 was tested. Which Kd did it give?
**A.** ~200 nM
